Assay [1] addresses T1, MOR1 (endogenous, mouse spinal cord) (mouse, UniProt P42866 1-398).
T1 construct: Untagged native receptor; precipitated with a rabbit anti-MOR1 antibody (Neuromics)
Put plainly: co-IP with anti-MOR1 antibody from spinal cord membrane preparation, immunoblot for GRPR. (In western blotting, separated proteins are transferred to a membrane and probed.)

Assay [2] deals with T2, MOR1D (endogenous, mouse spinal cord) (mouse, UniProt P42866-9 1-393).
T2 construct: Untagged native receptor in spinal cord membrane preparations and sections; MOR1D is a splice isoform of it; also called spinal MOR1D
Nature of the assay: co-IP with anti-MOR1D antibody from spinal cord membrane preparation, immunoblot for GRPR.

T2 sequence (P42866 1-386, tags or fused parts left off): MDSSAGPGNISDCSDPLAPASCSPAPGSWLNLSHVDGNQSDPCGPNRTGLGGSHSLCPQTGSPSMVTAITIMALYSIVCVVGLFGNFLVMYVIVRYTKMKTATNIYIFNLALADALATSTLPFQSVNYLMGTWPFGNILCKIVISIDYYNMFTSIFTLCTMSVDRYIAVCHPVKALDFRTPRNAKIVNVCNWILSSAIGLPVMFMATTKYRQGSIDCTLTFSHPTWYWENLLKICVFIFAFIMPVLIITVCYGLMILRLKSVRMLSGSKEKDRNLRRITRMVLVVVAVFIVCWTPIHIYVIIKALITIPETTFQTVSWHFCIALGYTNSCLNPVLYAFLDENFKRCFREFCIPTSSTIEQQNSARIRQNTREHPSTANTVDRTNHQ
T1 sequence (P42866 whole entry): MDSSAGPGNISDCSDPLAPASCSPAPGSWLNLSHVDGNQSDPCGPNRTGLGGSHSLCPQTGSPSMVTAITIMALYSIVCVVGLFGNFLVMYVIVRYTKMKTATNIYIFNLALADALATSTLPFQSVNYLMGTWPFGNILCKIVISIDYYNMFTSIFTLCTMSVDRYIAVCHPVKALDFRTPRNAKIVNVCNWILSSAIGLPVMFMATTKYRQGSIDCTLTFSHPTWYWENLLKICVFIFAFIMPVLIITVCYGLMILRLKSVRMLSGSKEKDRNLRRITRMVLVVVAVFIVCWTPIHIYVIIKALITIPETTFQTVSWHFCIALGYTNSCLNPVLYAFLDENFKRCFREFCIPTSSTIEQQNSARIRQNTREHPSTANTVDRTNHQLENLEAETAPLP

B1: GRPR (endogenous, mouse spinal cord) (receptor, UniProt P21729 1-384, looked up)
chain: MAPNNCSHLNLDVDPFLSCNDTFNQSLSPPKMDNWFHPGFIYVIPAVYGLIIVIGLIGNITLIKIFCTVKSMRNVPNLFISSLALGDLLLLVTCAPVDASKYLADRWLFGRIGCKLIPFIQLTSVGVSVFTLTALSADRYKAIVRPMDIQASHALMKICLKAALIWIVSMLLAIPEAVFSDLHPFHVKDTNQTFISCAPYPHSNELHPKIHSMASFLVFYVIPLAIISVYYYFIARNLIQSAYNLPVEGNIHVKKQIESRKRLAKTVLVFVGLFAFCWLPNHVIYLYRSYHYSEVDTSMLHFVTSICARLLAFTNSCVNPFALYLLSKSFRKQFNTQLLCCQPGLMNRSHSTGRSTTCMTSFKSTNPSATFSLINRNICHEGYV
notes: Untagged native receptor in spinal cord membrane preparations; also called gastrin-releasing peptide receptor
B1: the binding result in assay [1] was “no binding”; in assay [2], “binds”.

For the origin of these results see patent US20130065832A1 (WASHINGTON UNIVERSITY, published 2013).
